The target in this test is myc-tagged Trpc1 (transient receptor potential canonical subfamily member 1) (X. laevis). As to the kind of experiment: co-IP; mRNAs co-injected into 4-cell stage X. laevis embryos (200 pg/cell each); 12 animal caps (stage 8-9) lysed in SOFT buffer (50 mM Tris pH 7.4, 100 mM NaCl, 5 mM EDTA, 0.05% NP40, 1% Triton X100); 120 µg protein precipitated with anti-HA or anti-Myc antibodies and A/G protein beads; blots with anti-HA and anti-Myc; animal caps with or without 2 µg/mL noggin for 15 min before lysis.

On to “HA-tagged BMP receptor type II, full length”, for which the fold change of the co-immunoprecipitated fraction with noggin against without noggin was 1.64 fold.

Values taken from publication PMC6831629.
